According to PMC9482650, “Quantitative fragmentomics allow affinity mapping of interactomes” (Nature Communications, 2022):
Blank lines part the entries; values can stand above or below the binder they belong to.

Columns and labels:
Assay in all cases: holdup assay
Parameters in all cases: key: below the threshold = too weak to quantify, mostly under pKd 3.1 to 4
ARHGAP21, Q5T5U3 = biological target: T1, ARHGAP21, Q5T5U3
T1 sequence (Q5T5U3 45-169, limits assumed, looked up): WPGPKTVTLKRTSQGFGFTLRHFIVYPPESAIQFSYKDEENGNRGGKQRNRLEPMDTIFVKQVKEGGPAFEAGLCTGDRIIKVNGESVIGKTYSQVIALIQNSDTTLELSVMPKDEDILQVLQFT

DFNB31_2, Q9P202 = biological target: T2, DFNB31_2, Q9P202
T2 sequence (Q9P202 274-371, limits assumed, looked up): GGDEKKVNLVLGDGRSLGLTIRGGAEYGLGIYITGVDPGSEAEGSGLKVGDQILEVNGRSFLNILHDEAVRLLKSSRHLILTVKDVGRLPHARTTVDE

DLG2_2, Q15700 = biological target: DLG2_2, Q15700
Sequence of DLG2_2, Q15700 (Q15700 189-283): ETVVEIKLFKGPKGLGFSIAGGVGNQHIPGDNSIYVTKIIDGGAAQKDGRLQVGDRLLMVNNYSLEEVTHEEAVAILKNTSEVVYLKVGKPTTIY

DLG5_1, Q8TDM6 = biological target: DLG5_1, Q8TDM6
Sequence of DLG5_1, Q8TDM6 (Q8TDM6 617-713): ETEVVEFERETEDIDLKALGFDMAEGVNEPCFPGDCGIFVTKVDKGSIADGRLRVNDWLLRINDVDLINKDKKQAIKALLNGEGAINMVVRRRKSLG

FRMPD2_2, Q68DX3 = biological target: FRMPD2_2, Q68DX3
Sequence of FRMPD2_2, Q68DX3 (Q68DX3 944-1038): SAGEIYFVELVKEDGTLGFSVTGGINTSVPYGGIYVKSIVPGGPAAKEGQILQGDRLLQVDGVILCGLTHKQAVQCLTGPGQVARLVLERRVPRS

GOPC, Q9HD26 = biological target: GOPC, Q9HD26
GRASP, Q7Z6J2 = biological target: GRASP, Q7Z6J2
Sequence of GRASP, Q7Z6J2 (Q7Z6J2 96-193): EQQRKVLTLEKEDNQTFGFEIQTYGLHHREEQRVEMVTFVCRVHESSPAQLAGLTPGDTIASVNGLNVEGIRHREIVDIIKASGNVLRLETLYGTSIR

GRIP1_2, Q9Y3R0 = biological target: T3, GRIP1_2, Q9Y3R0
T3 sequence (Q9Y3R0 145-248, limits assumed, looked up): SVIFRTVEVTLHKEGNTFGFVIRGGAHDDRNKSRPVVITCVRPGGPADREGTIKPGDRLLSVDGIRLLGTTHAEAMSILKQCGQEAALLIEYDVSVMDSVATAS

GRIP2_3, Q9C0E4 = biological target: GRIP2_3, Q9C0E4
Sequence of GRIP2_3, Q9C0E4 (Q9C0E4 238-339): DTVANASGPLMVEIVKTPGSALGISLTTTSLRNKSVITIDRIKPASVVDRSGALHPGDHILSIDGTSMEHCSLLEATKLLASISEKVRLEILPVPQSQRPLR

HTRA2, O43464 = biological target: HTRA2, O43464
Sequence of HTRA2, O43464 (O43464 355-458): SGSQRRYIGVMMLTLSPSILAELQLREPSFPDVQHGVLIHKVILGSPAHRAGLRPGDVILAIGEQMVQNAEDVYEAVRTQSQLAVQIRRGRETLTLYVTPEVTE

HTRA4, P83105 = biological target: T4, HTRA4, P83105
T4 sequence (P83105 378-476, limits assumed, looked up): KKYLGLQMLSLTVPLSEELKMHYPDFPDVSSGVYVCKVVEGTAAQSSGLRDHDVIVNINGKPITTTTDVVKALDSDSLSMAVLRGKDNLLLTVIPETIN

IL16_4, Q14005 = biological target: IL16_4, Q14005
Sequence of IL16_4, Q14005 (Q14005 1229-1329): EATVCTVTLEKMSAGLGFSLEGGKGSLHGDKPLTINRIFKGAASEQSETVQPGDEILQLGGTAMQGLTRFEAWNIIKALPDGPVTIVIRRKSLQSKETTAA

Inadl_3, Q8NI35 = biological target: Inadl_3, Q8NI35
Sequence of Inadl_3, Q8NI35 (Q8NI35 359-469): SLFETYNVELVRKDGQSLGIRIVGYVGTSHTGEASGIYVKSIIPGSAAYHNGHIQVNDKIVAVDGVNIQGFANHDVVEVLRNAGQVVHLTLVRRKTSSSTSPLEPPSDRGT

Inadl_4, Q8NI35 = biological target: Inadl_4, Q8NI35
Sequence of Inadl_4, Q8NI35 (Q8NI35 547-651): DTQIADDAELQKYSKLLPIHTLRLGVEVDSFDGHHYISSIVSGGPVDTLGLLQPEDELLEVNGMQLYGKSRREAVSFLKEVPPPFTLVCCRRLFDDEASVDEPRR

LAP2, Q96RT1 = biological target: LAP2, Q96RT1
Sequence of LAP2, Q96RT1 (Q96RT1 other isoform, or with tags, fused parts or gaps): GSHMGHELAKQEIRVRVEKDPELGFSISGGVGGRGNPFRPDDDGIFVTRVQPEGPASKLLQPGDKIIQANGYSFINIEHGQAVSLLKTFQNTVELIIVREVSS

MAGI1_1, Q96QZ7 = biological target: MAGI1_1, Q96QZ7
Sequence of MAGI1_1, Q96QZ7 (Q96QZ7 1-106): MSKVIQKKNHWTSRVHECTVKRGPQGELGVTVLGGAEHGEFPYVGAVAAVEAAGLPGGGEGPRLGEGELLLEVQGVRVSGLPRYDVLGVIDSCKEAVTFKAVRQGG

MAGI2_5, Q86UL8 = biological target: MAGI2_5, Q86UL8
Sequence of MAGI2_5, Q86UL8 (Q86UL8 915-1017): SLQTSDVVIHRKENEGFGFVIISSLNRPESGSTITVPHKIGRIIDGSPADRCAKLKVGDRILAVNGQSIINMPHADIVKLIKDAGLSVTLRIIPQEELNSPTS

MAGI3_2, Q5TCQ9 = biological target: MAGI3_2, Q5TCQ9
Sequence of MAGI3_2, Q5TCQ9 (Q5TCQ9 398-503): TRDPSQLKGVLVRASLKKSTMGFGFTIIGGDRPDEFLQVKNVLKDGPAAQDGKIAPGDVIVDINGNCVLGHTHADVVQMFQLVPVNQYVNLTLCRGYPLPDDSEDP

MPP2, Q14168 = biological target: T5, MPP2, Q14168
T5 sequence (Q14168 180-250, limits assumed, looked up): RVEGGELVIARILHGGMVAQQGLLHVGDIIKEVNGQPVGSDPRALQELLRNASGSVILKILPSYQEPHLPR

NHERF2_2, Q15599 = biological target: NHERF2_2, Q15599
Sequence of NHERF2_2, Q15599 (Q15599 142-238): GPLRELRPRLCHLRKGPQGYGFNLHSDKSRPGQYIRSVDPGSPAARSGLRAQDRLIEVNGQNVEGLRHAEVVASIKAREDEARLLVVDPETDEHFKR

PARD3B_1, Q8TEW8 = biological target: T6, PARD3B_1, Q8TEW8
T6 sequence (Q8TEW8 196-299, limits assumed, looked up): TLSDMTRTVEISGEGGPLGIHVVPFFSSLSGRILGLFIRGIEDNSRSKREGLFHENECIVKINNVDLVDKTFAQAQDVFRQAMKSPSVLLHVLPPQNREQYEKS

PARD3_3, Q8TEW0 = biological target: PARD3_3, Q8TEW0
Sequence of PARD3_3, Q8TEW0 (Q8TEW0 582-685): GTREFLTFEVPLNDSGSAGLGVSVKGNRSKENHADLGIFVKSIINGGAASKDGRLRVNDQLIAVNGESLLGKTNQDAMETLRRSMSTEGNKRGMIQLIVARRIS

PDZRN3_1, Q9UPQ7 = biological target: T7, PDZRN3_1, Q9UPQ7
T7 sequence (Q9UPQ7 244-349, limits assumed, looked up): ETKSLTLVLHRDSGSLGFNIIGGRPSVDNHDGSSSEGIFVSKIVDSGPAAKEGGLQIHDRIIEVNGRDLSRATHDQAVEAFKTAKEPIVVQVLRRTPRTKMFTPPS

SHANK1, Q9Y566 = biological target: T8, SHANK1, Q9Y566
T8 sequence (Q9Y566 658-767, limits assumed, looked up): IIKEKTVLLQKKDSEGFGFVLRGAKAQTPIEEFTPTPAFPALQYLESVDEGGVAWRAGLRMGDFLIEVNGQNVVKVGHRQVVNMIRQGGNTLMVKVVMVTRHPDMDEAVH

SNTB1, Q13884 = biological target: T9, SNTB1, Q13884
T9 sequence (Q13884 107-205, limits assumed, looked up): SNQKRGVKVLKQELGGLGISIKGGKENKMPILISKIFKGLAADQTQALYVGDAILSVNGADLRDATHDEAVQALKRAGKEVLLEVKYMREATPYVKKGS

TX1BP3, O14907 = biological target: T10, TX1BP3, O14907
T10 sequence (O14907 10-122, limits assumed, looked up): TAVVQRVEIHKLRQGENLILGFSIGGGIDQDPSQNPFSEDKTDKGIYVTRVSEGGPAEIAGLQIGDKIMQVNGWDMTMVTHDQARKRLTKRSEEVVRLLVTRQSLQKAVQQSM

[1] = plain residues with an end cap or a label only (N-terminal biotin on a linker: ado-ado)
[2] = plain residues with an end cap or a label only (N-terminal biotin on a linker: ahx)

Binder: PYSESDDDWC [CACNA1A, O00555]
- pKd (ARHGAP21, Q5T5U3; [1]): 4.17
- pKd (DFNB31_2, Q9P202; [1]): below the threshold
- pKd (DLG2_2, Q15700; [1]): below the threshold
- pKd (DLG5_1, Q8TDM6; [1]): below the threshold
- pKd (FRMPD2_2, Q68DX3; [1]): below the threshold
- pKd (GOPC, Q9HD26; [1]): below the threshold
- pKd (GRASP, Q7Z6J2; [1]): below the threshold
- pKd (GRIP1_2, Q9Y3R0; [1]): 3.62
- pKd (GRIP2_3, Q9C0E4; [1]): below the threshold
- pKd (HTRA2, O43464; [1]): below the threshold
- pKd (HTRA4, P83105; [1]): below the threshold
- pKd (IL16_4, Q14005; [1]): below the threshold
- pKd (Inadl_3, Q8NI35; [1]): below the threshold
- pKd (Inadl_4, Q8NI35; [1]): below the threshold
- pKd (LAP2, Q96RT1; [1]): 3.87
- pKd (MAGI1_1, Q96QZ7; [1]): below the threshold
- pKd (MAGI2_5, Q86UL8; [1]): below the threshold
- pKd (MAGI3_2, Q5TCQ9; [1]): below the threshold
- pKd (MPP2, Q14168; [1]): below the threshold
- pKd (NHERF2_2, Q15599; [1]): 3.74
- pKd (PARD3B_1, Q8TEW8; [1]): 3.61
- pKd (PARD3_3, Q8TEW0; [1]): 3.89
- pKd (PDZRN3_1, Q9UPQ7; [1]): below the threshold
- pKd (SHANK1, Q9Y566; [1]): below the threshold
- pKd (SNTB1, Q13884; [1]): below the threshold
- pKd (TX1BP3, O14907; [1]): below the threshold

Binder: QNTDDVQTSF [ACE2, Q9BYF1]
- pKd (ARHGAP21, Q5T5U3; [2]): 3.64
- pKd (DFNB31_2, Q9P202; [2]): below the threshold
- pKd (DLG2_2, Q15700; [2]): below the threshold
- pKd (DLG5_1, Q8TDM6; [2]): below the threshold
- pKd (FRMPD2_2, Q68DX3; [2]): below the threshold
- pKd (GOPC, Q9HD26; [2]): below the threshold
- pKd (GRASP, Q7Z6J2; [2]): 4.29
- pKd (GRIP1_2, Q9Y3R0; [2]): below the threshold
- pKd (GRIP2_3, Q9C0E4; [2]): below the threshold
- pKd (HTRA2, O43464; [2]): below the threshold
- pKd (HTRA4, P83105; [2]): below the threshold
- pKd (IL16_4, Q14005; [2]): below the threshold
- pKd (Inadl_3, Q8NI35; [2]): 3.66
- pKd (Inadl_4, Q8NI35; [2]): below the threshold
- pKd (LAP2, Q96RT1; [2]): below the threshold
- pKd (MAGI1_1, Q96QZ7; [2]): below the threshold
- pKd (MAGI2_5, Q86UL8; [2]): 4.21
- pKd (MAGI3_2, Q5TCQ9; [2]): below the threshold
- pKd (MPP2, Q14168; [2]): below the threshold
- pKd (NHERF2_2, Q15599; [2]): 4.29
- pKd (PARD3B_1, Q8TEW8; [2]): 3.82
- pKd (PARD3_3, Q8TEW0; [2]): below the threshold
- pKd (PDZRN3_1, Q9UPQ7; [2]): below the threshold
- pKd (SHANK1, Q9Y566; [2]): 4.75
- pKd (SNTB1, Q13884; [2]): below the threshold
- pKd (TX1BP3, O14907; [2]): below the threshold

Binder: QSGLYESEEL [MYOT, Q9UBF9]
- pKd (ARHGAP21, Q5T5U3; [1]): below the threshold
- pKd (DFNB31_2, Q9P202; [1]): below the threshold
- pKd (DLG2_2, Q15700; [1]): below the threshold
- pKd (DLG5_1, Q8TDM6; [1]): below the threshold
- pKd (FRMPD2_2, Q68DX3; [1]): below the threshold
- pKd (GOPC, Q9HD26; [1]): below the threshold
- pKd (GRASP, Q7Z6J2; [1]): 4.09
- pKd (GRIP1_2, Q9Y3R0; [1]): below the threshold
- pKd (GRIP2_3, Q9C0E4; [1]): below the threshold
- pKd (HTRA2, O43464; [1]): below the threshold
- pKd (HTRA4, P83105; [1]): 3.69
- pKd (IL16_4, Q14005; [1]): below the threshold
- pKd (Inadl_3, Q8NI35; [1]): below the threshold
- pKd (Inadl_4, Q8NI35; [1]): below the threshold
- pKd (LAP2, Q96RT1; [1]): 3.9
- pKd (MAGI1_1, Q96QZ7; [1]): below the threshold
- pKd (MAGI2_5, Q86UL8; [1]): 4.02
- pKd (MAGI3_2, Q5TCQ9; [1]): below the threshold
- pKd (MPP2, Q14168; [1]): below the threshold
- pKd (NHERF2_2, Q15599; [1]): 4.04
- pKd (PARD3B_1, Q8TEW8; [1]): 3.86
- pKd (PARD3_3, Q8TEW0; [1]): 3.59
- pKd (PDZRN3_1, Q9UPQ7; [1]): below the threshold
- pKd (SHANK1, Q9Y566; [1]): 3.72
- pKd (SNTB1, Q13884; [1]): below the threshold
- pKd (TX1BP3, O14907; [1]): 3.85

Second part, the binder after the results:

- pKd (ARHGAP21, Q5T5U3; [1]): 4.02
- pKd (DFNB31_2, Q9P202; [1]): below the threshold
- pKd (DLG2_2, Q15700; [1]): below the threshold
- pKd (DLG5_1, Q8TDM6; [1]): below the threshold
- pKd (FRMPD2_2, Q68DX3; [1]): below the threshold
- pKd (GOPC, Q9HD26; [1]): below the threshold
- pKd (GRASP, Q7Z6J2; [1]): below the threshold
- pKd (GRIP1_2, Q9Y3R0; [1]): below the threshold
- pKd (GRIP2_3, Q9C0E4; [1]): below the threshold
- pKd (HTRA2, O43464; [1]): below the threshold
- pKd (HTRA4, P83105; [1]): 3.96
- pKd (IL16_4, Q14005; [1]): below the threshold
- pKd (Inadl_3, Q8NI35; [1]): 4.63
- pKd (Inadl_4, Q8NI35; [1]): below the threshold
- pKd (LAP2, Q96RT1; [1]): below the threshold
- pKd (MAGI1_1, Q96QZ7; [1]): below the threshold
- pKd (MAGI2_5, Q86UL8; [1]): below the threshold
- pKd (MAGI3_2, Q5TCQ9; [1]): below the threshold
- pKd (MPP2, Q14168; [1]): below the threshold
- pKd (NHERF2_2, Q15599; [1]): below the threshold
- pKd (PARD3B_1, Q8TEW8; [1]): below the threshold
- pKd (PARD3_3, Q8TEW0; [1]): 4.29
- pKd (PDZRN3_1, Q9UPQ7; [1]): below the threshold
- pKd (SHANK1, Q9Y566; [1]): below the threshold
- pKd (SNTB1, Q13884; [1]): below the threshold
- pKd (TX1BP3, O14907; [1]): 4.09
Binder: LPAVCYDIDI [PTTG2, Q9NZH5]

- pKd (ARHGAP21, Q5T5U3; [1]): below the threshold
- pKd (DFNB31_2, Q9P202; [1]): below the threshold
- pKd (DLG2_2, Q15700; [1]): below the threshold
- pKd (DLG5_1, Q8TDM6; [1]): below the threshold
- pKd (FRMPD2_2, Q68DX3; [1]): below the threshold
- pKd (GOPC, Q9HD26; [1]): 3.89
- pKd (GRASP, Q7Z6J2; [1]): 5.05
- pKd (GRIP1_2, Q9Y3R0; [1]): below the threshold
- pKd (GRIP2_3, Q9C0E4; [1]): below the threshold
- pKd (HTRA2, O43464; [1]): below the threshold
- pKd (HTRA4, P83105; [1]): below the threshold
- pKd (IL16_4, Q14005; [1]): below the threshold
- pKd (Inadl_3, Q8NI35; [1]): below the threshold
- pKd (Inadl_4, Q8NI35; [1]): below the threshold
- pKd (LAP2, Q96RT1; [1]): below the threshold
- pKd (MAGI1_1, Q96QZ7; [1]): below the threshold
- pKd (MAGI2_5, Q86UL8; [1]): 4.59
- pKd (MAGI3_2, Q5TCQ9; [1]): 4.55
- pKd (MPP2, Q14168; [1]): below the threshold
- pKd (NHERF2_2, Q15599; [1]): 3.61
- pKd (PARD3B_1, Q8TEW8; [1]): 4.47
- pKd (PARD3_3, Q8TEW0; [1]): below the threshold
- pKd (PDZRN3_1, Q9UPQ7; [1]): 3.6
- pKd (SHANK1, Q9Y566; [1]): 4.71
- pKd (SNTB1, Q13884; [1]): 3.64
- pKd (TX1BP3, O14907; [1]): 3.76
Binder: KKMLQRRTLL [OR8G1, Q15617]
